Source: patent US20140087995A1 (published 2014)
Blank lines part the entries; values can stand above or below the binder they belong to. Numbered stars: 1 amine (or outer) side, 2 acyl side, 3 side chain; on linkers, the order of the positions; unused ones are H or OH. Bridge positions count the residues as written; N and C are the ends. Side chains are listed from the residue outwards. Ends that are not written are not given here. * marks the point of attachment. C20 diacid = O=C(O)CCCCCCCCCCCCCCCCCCC(=O)*; γGlu = O=C(O)[C@H](CCC(=O)[*:2])N[*:1]; AEEA = NCCOCCOCC(=O)O

Molecular target: T1, human amylin 3(a) receptor (human calcitonin receptor co-expressed with RAMP-3) (human, UniProt P30988 25-474; O60896 24-148, limits assumed)
T1 sequence (looked up) 1: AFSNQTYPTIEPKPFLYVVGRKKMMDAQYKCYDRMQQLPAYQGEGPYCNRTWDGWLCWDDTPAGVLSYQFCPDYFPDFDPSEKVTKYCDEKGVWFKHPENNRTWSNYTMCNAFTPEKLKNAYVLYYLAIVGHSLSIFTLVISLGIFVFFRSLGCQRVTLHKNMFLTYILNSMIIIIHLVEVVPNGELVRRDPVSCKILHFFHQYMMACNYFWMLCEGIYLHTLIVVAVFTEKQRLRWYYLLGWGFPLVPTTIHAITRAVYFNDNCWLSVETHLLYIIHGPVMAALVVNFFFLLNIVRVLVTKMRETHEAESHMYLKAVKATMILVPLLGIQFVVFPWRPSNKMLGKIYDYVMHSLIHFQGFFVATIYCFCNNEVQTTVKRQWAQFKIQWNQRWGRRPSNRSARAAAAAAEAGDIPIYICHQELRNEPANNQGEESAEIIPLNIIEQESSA
T1 sequence (looked up) 2: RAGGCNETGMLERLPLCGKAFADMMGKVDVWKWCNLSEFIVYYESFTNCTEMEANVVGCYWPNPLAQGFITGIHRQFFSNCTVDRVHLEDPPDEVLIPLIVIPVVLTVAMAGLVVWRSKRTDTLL
Experiment: cell-based or functional assay

B1: N^ε1-[2-[2-[2-[[(4S)-4-carboxy-4-(19-carboxynonadecanoylamino)butanoyl]amino]ethoxy]ethoxy]acetyl]-[His14,Arg17,Pro21,Pro27,Arg34]-h-amylin (peptide)
peptide: K([AEEA-γGlu-C20 diacid])CNTATCATQRLAHFLRHSSPNFGAIPSSTNVGRNTY-NH2
modifications: disulfide 2-7; N-terminus assumed
SMILES: CC[C@H](C)[C@H](NC(=O)[C@H](C)NC(=O)CNC(=O)[C@H](Cc1ccccc1)NC(=O)[C@H](CC(N)=O)NC(=O)[C@@H]1CCCN1C(=O)[C@H](CO)NC(=O)[C@H](CO)NC(=O)[C@H](Cc1c[nH]cn1)NC(=O)[C@H](CCCNC(=N)N)NC(=O)[C@H](CC(C)C)NC(=O)[C@H](Cc1ccccc1)NC(=O)[C@H](Cc1c[nH]cn1)NC(=O)[C@H](C)NC(=O)[C@H](CC(C)C)NC(=O)[C@H](CCCNC(=N)N)NC(=O)[C@H](CCC(N)=O)NC(=O)[C@@H](NC(=O)[C@H](C)NC(=O)[C@@H]1CSSC[C@H](NC(=O)[C@@H](N)CCCCNC(=O)COCCOCCNC(=O)CC[C@H](NC(=O)CCCCCCCCCCCCCCCCCCC(=O)O)C(=O)O)C(=O)N[C@@H](CC(N)=O)C(=O)N[C@@H]([C@@H](C)O)C(=O)N[C@@H](C)C(=O)N[C@@H]([C@@H](C)O)C(=O)N1)[C@@H](C)O)C(=O)N1CCC[C@H]1C(=O)N[C@@H](CO)C(=O)N[C@@H](CO)C(=O)N[C@H](C(=O)N[C@@H](CC(N)=O)C(=O)N[C@H](C(=O)NCC(=O)N[C@@H](CCCNC(=N)N)C(=O)N[C@@H](CC(N)=O)C(=O)N[C@H](C(=O)N[C@@H](Cc1ccc(O)cc1)C(N)=O)[C@@H](C)O)C(C)C)[C@@H](C)O
notes: also called compound 84
- Ratio hCT/hAmylin funct. (hCTR EC50 over hAmylin-R EC50): 32.5
- hAmylin-R funct. EC50 (pM): 169 pM

B2: N^ε1-[2-[2-[2-[[(4S)-4-carboxy-4-(19-carboxynonadecanoylamino)butanoyl]amino]ethoxy]ethoxy]acetyl]-[His14,Arg17,Pro21,Pro27,Pro34]-h-amylin (peptide)
peptide: K([AEEA-γGlu-C20 diacid])CNTATCATQRLAHFLRHSSPNFGAIPSSTNVGPNTY-NH2
modifications: disulfide 2-7; N-terminus assumed
SMILES: CC[C@H](C)[C@H](NC(=O)[C@H](C)NC(=O)CNC(=O)[C@H](Cc1ccccc1)NC(=O)[C@H](CC(N)=O)NC(=O)[C@@H]1CCCN1C(=O)[C@H](CO)NC(=O)[C@H](CO)NC(=O)[C@H](Cc1c[nH]cn1)NC(=O)[C@H](CCCNC(=N)N)NC(=O)[C@H](CC(C)C)NC(=O)[C@H](Cc1ccccc1)NC(=O)[C@H](Cc1c[nH]cn1)NC(=O)[C@H](C)NC(=O)[C@H](CC(C)C)NC(=O)[C@H](CCCNC(=N)N)NC(=O)[C@H](CCC(N)=O)NC(=O)[C@@H](NC(=O)[C@H](C)NC(=O)[C@@H]1CSSC[C@H](NC(=O)[C@@H](N)CCCCNC(=O)COCCOCCNC(=O)CC[C@H](NC(=O)CCCCCCCCCCCCCCCCCCC(=O)O)C(=O)O)C(=O)N[C@@H](CC(N)=O)C(=O)N[C@@H]([C@@H](C)O)C(=O)N[C@@H](C)C(=O)N[C@@H]([C@@H](C)O)C(=O)N1)[C@@H](C)O)C(=O)N1CCC[C@H]1C(=O)N[C@@H](CO)C(=O)N[C@@H](CO)C(=O)N[C@H](C(=O)N[C@@H](CC(N)=O)C(=O)N[C@H](C(=O)NCC(=O)N1CCC[C@H]1C(=O)N[C@@H](CC(N)=O)C(=O)N[C@H](C(=O)N[C@@H](Cc1ccc(O)cc1)C(N)=O)[C@@H](C)O)C(C)C)[C@@H](C)O
notes: also called compound 68
- Ratio hCT/hAmylin funct. (hCTR EC50 over hAmylin-R EC50): 17.4
- hAmylin-R funct. EC50 (pM): 54 pM

B3: N^ε1-[2-[2-[2-[[(4S)-4-carboxy-4-(19-carboxynonadecanoylamino)butanoyl]amino]ethoxy]ethoxy]acetyl]-[Thr14,Arg17,Pro21,Pro27,Pro31]-h-amylin (peptide)
peptide: K([AEEA-γGlu-C20 diacid])CNTATCATQRLATFLRHSSPNFGAIPSSTPVGSNTY-NH2
modifications: disulfide 2-7; N-terminus assumed
SMILES: CC[C@H](C)[C@H](NC(=O)[C@H](C)NC(=O)CNC(=O)[C@H](Cc1ccccc1)NC(=O)[C@H](CC(N)=O)NC(=O)[C@@H]1CCCN1C(=O)[C@H](CO)NC(=O)[C@H](CO)NC(=O)[C@H](Cc1c[nH]cn1)NC(=O)[C@H](CCCNC(=N)N)NC(=O)[C@H](CC(C)C)NC(=O)[C@H](Cc1ccccc1)NC(=O)[C@@H](NC(=O)[C@H](C)NC(=O)[C@H](CC(C)C)NC(=O)[C@H](CCCNC(=N)N)NC(=O)[C@H](CCC(N)=O)NC(=O)[C@@H](NC(=O)[C@H](C)NC(=O)[C@@H]1CSSC[C@H](NC(=O)[C@@H](N)CCCCNC(=O)COCCOCCNC(=O)CC[C@H](NC(=O)CCCCCCCCCCCCCCCCCCC(=O)O)C(=O)O)C(=O)N[C@@H](CC(N)=O)C(=O)N[C@@H]([C@@H](C)O)C(=O)N[C@@H](C)C(=O)N[C@@H]([C@@H](C)O)C(=O)N1)[C@@H](C)O)[C@@H](C)O)C(=O)N1CCC[C@H]1C(=O)N[C@@H](CO)C(=O)N[C@@H](CO)C(=O)N[C@H](C(=O)N1CCC[C@H]1C(=O)N[C@H](C(=O)NCC(=O)N[C@@H](CO)C(=O)N[C@@H](CC(N)=O)C(=O)N[C@H](C(=O)N[C@@H](Cc1ccc(O)cc1)C(N)=O)[C@@H](C)O)C(C)C)[C@@H](C)O
notes: also called compound 75
- Ratio hCT/hAmylin funct. (hCTR EC50 over hAmylin-R EC50): 30.6
- hAmylin-R funct. EC50 (pM): 296 pM

B5: N^ε1-[2-[2-[2-[[(4S)-4-carboxy-4-(19-carboxynonadecanoylamino)butanoyl]amino]ethoxy]ethoxy]acetyl]-[Lys14,Arg17,Pro21,Pro27,Pro31]-h-amylin (peptide)
peptide: K([AEEA-γGlu-C20 diacid])CNTATCATQRLAKFLRHSSPNFGAIPSSTPVGSNTY-NH2
modifications: disulfide 2-7; N-terminus assumed
SMILES: CC[C@H](C)[C@H](NC(=O)[C@H](C)NC(=O)CNC(=O)[C@H](Cc1ccccc1)NC(=O)[C@H](CC(N)=O)NC(=O)[C@@H]1CCCN1C(=O)[C@H](CO)NC(=O)[C@H](CO)NC(=O)[C@H](Cc1c[nH]cn1)NC(=O)[C@H](CCCNC(=N)N)NC(=O)[C@H](CC(C)C)NC(=O)[C@H](Cc1ccccc1)NC(=O)[C@H](CCCCN)NC(=O)[C@H](C)NC(=O)[C@H](CC(C)C)NC(=O)[C@H](CCCNC(=N)N)NC(=O)[C@H](CCC(N)=O)NC(=O)[C@@H](NC(=O)[C@H](C)NC(=O)[C@@H]1CSSC[C@H](NC(=O)[C@@H](N)CCCCNC(=O)COCCOCCNC(=O)CC[C@H](NC(=O)CCCCCCCCCCCCCCCCCCC(=O)O)C(=O)O)C(=O)N[C@@H](CC(N)=O)C(=O)N[C@@H]([C@@H](C)O)C(=O)N[C@@H](C)C(=O)N[C@@H]([C@@H](C)O)C(=O)N1)[C@@H](C)O)C(=O)N1CCC[C@H]1C(=O)N[C@@H](CO)C(=O)N[C@@H](CO)C(=O)N[C@H](C(=O)N1CCC[C@H]1C(=O)N[C@H](C(=O)NCC(=O)N[C@@H](CO)C(=O)N[C@@H](CC(N)=O)C(=O)N[C@H](C(=O)N[C@@H](Cc1ccc(O)cc1)C(N)=O)[C@@H](C)O)C(C)C)[C@@H](C)O
notes: also called compound 74
- Ratio hCT/hAmylin funct. (hCTR EC50 over hAmylin-R EC50): 56.3
- hAmylin-R funct. EC50 (pM): 666 pM

Further lines, results first:

- Ratio hCT/hAmylin funct. (hCTR EC50 over hAmylin-R EC50): 38.6
- hAmylin-R funct. EC50 (pM): 242 pM
B4: N^ε1-[(4S)-4-carboxy-4-(19-carboxynonadecanoylamino)butanoyl]-[Arg14,Arg17,Pro21,Pro27,Pro34]-h-amylin (peptide)
peptide: K([γGlu-C20 diacid])CNTATCATQRLARFLRHSSPNFGAIPSSTNVGPNTY-NH2
modifications: disulfide 2-7; N-terminus assumed
SMILES: CC[C@H](C)[C@H](NC(=O)[C@H](C)NC(=O)CNC(=O)[C@H](Cc1ccccc1)NC(=O)[C@H](CC(N)=O)NC(=O)[C@@H]1CCCN1C(=O)[C@H](CO)NC(=O)[C@H](CO)NC(=O)[C@H](Cc1c[nH]cn1)NC(=O)[C@H](CCCNC(=N)N)NC(=O)[C@H](CC(C)C)NC(=O)[C@H](Cc1ccccc1)NC(=O)[C@H](CCCNC(=N)N)NC(=O)[C@H](C)NC(=O)[C@H](CC(C)C)NC(=O)[C@H](CCCNC(=N)N)NC(=O)[C@H](CCC(N)=O)NC(=O)[C@@H](NC(=O)[C@H](C)NC(=O)[C@@H]1CSSC[C@H](NC(=O)[C@@H](N)CCCCNC(=O)CC[C@H](NC(=O)CCCCCCCCCCCCCCCCCCC(=O)O)C(=O)O)C(=O)N[C@@H](CC(N)=O)C(=O)N[C@@H]([C@@H](C)O)C(=O)N[C@@H](C)C(=O)N[C@@H]([C@@H](C)O)C(=O)N1)[C@@H](C)O)C(=O)N1CCC[C@H]1C(=O)N[C@@H](CO)C(=O)N[C@@H](CO)C(=O)N[C@H](C(=O)N[C@@H](CC(N)=O)C(=O)N[C@H](C(=O)NCC(=O)N1CCC[C@H]1C(=O)N[C@@H](CC(N)=O)C(=O)N[C@H](C(=O)N[C@@H](Cc1ccc(O)cc1)C(N)=O)[C@@H](C)O)C(C)C)[C@@H](C)O
notes: also called compound 65

- Ratio hCT/hAmylin funct. (hCTR EC50 over hAmylin-R EC50): 139
- hAmylin-R funct. EC50 (pM): 37 pM
B6: N^ε1-[(4S)-4-carboxy-4-(19-carboxynonadecanoylamino)butanoyl]-[Arg14,Arg17,Pro21,Pro27,Pro31]-h-amylin (peptide)
peptide: K([γGlu-C20 diacid])CNTATCATQRLARFLRHSSPNFGAIPSSTPVGSNTY-NH2
modifications: disulfide 2-7; N-terminus assumed
SMILES: CC[C@H](C)[C@H](NC(=O)[C@H](C)NC(=O)CNC(=O)[C@H](Cc1ccccc1)NC(=O)[C@H](CC(N)=O)NC(=O)[C@@H]1CCCN1C(=O)[C@H](CO)NC(=O)[C@H](CO)NC(=O)[C@H](Cc1c[nH]cn1)NC(=O)[C@H](CCCNC(=N)N)NC(=O)[C@H](CC(C)C)NC(=O)[C@H](Cc1ccccc1)NC(=O)[C@H](CCCNC(=N)N)NC(=O)[C@H](C)NC(=O)[C@H](CC(C)C)NC(=O)[C@H](CCCNC(=N)N)NC(=O)[C@H](CCC(N)=O)NC(=O)[C@@H](NC(=O)[C@H](C)NC(=O)[C@@H]1CSSC[C@H](NC(=O)[C@@H](N)CCCCNC(=O)CC[C@H](NC(=O)CCCCCCCCCCCCCCCCCCC(=O)O)C(=O)O)C(=O)N[C@@H](CC(N)=O)C(=O)N[C@@H]([C@@H](C)O)C(=O)N[C@@H](C)C(=O)N[C@@H]([C@@H](C)O)C(=O)N1)[C@@H](C)O)C(=O)N1CCC[C@H]1C(=O)N[C@@H](CO)C(=O)N[C@@H](CO)C(=O)N[C@H](C(=O)N1CCC[C@H]1C(=O)N[C@H](C(=O)NCC(=O)N[C@@H](CO)C(=O)N[C@@H](CC(N)=O)C(=O)N[C@H](C(=O)N[C@@H](Cc1ccc(O)cc1)C(N)=O)[C@@H](C)O)C(C)C)[C@@H](C)O
notes: also called compound 63
